From patent publication US20200317816A1 (Novartis, published 2020)

What was measured:
[1] = molecular target: anti-FXI/FXIa antibody NOV1401; test: cell-based or functional assay
[2] = molecular target: anti-FXI/FXIa antibody NOV1401; test: cell-based or functional assay; remark: listed apart in the source
[3] = molecular target: T1, anti-FXI/FXIa antibody NOV1401; test: SPR (ProteOn XPR36), NOV1401 amine-coupled on the chip, Fab as analyte 0.125-4 nM, Langmuir 1:1 fit, 25 C; n=1
T1 construct: It was amine-coupled to the chip in SPR; In SET it was titrated in solution, and biotinylated NOV1401 served only as the capture reagent on the plate
T1 sequence (VH, as listed by the source, chain 1 of 2): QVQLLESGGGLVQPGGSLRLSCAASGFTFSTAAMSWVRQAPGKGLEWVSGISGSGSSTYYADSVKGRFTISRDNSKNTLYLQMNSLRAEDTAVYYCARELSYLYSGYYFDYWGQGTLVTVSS
T1 sequence (VL, as listed by the source, chain 2 of 2): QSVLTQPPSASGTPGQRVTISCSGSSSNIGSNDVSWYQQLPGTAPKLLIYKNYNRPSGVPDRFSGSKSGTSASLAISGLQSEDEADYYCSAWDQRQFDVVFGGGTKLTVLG
Description: SPR binding experiments were performed on a ProteOn XPR36 instrument (Bio-Rad Laboratories, Inc.) in PBS/T buffer (50 mM phosphate, 150 mM NaCl, pH 7.4, 0.005% v/v Tween-20) at 25° C. […] Unreacted groups were blocked by injecting 1 M ethanolamine.
Blank surfaces were used for background corrections. There was no need to regenerate surfaces since the ProteOn protein interaction array system allows to run up to six binding experiments on an identical surface in parallel.
Data processing and analysis including kon, koff, and KD determination were performed with the ProteOn Manager™ software version 3.1.0.6. Sensorgrams were fitted by applying a Langmuir 1:1 binding model (Rmax set at global) and dissociation constants were calculated from kon and koff.

[4] = molecular target: T1, anti-FXI/FXIa antibody NOV1401; test: solution equilibrium titration (SET), constant Fab with NOV1401 titrated in solution, free Fab captured on biotinylated NOV1401, 1:1 fit; average of n=3
Description: After washing the plate again three times, 30 μl of detection reagent (LumiGLO Peroxidase Chemiluminescent Substrate, KPL#54-61-01) was added to each well. Electrochemiluminescence (ECL) signals were generated and detected immediately with a luminescence imager (SpectraMax M5, Molecular Devices, LLC).
Average ECL-signals were calculated from duplicate measurements within each assay. Data were baseline adjusted by subtracting the lowest value from all data points and plotted against the corresponding antigen concentration.

percentage reversal of NOV1401 aPTT prolongation, NOV1401/anti NOV1401 ratio 1/1 (n/n) [1]: 21%
percentage reversal of NOV1401 aPTT prolongation, NOV1401/anti NOV1401 ratio 1/3 (n/n) [1]: 42%
percentage reversal of NOV1401 aPTT prolongation, NOV1401/anti NOV1401 ratio 1/10 (n/n) [1]: 55%
percentage reversal of the NOV1401 effect on thrombin generation (TGA), NOV1401/anti NOV1401 ratio 1/1 (n/n) [2]: 55%
percentage reversal of the NOV1401 effect on thrombin generation (TGA), NOV1401/anti NOV1401 ratio 1/3 (n/n) [2]: 57%
percentage reversal of the NOV1401 effect on thrombin generation (TGA), NOV1401/anti NOV1401 ratio 1/10 (n/n) [2]: 61%
Kd [3]: 0.23 nM
Kd [4]: 0.1 nM
B1: IDT2 anti-NOV1401 Fab (Fab, V domains shown)
VH: QVQLVESGGGLVKPGGSLRLSCAASGFTFSSAAVHWVRQAPGKGLEWVGRIKSKADGGTTDYAAPVKGRFTISRDDSKNTLYLQMNSLKTEDTAVYYCARDSPSISSYSIPYFSGMDVWGQGTLVTVSS
VL: DIQMTQSPSSLSASVGDRVTITCRASQGIRAWLNWYQQKPGKAPKLLIYAASSLQSGVPSRFSGSGSGTDFTLTISSLQPEDFATYYCHQYITHPPTFGQGTKVEIKR
notes: Human Fab; The heavy chain entry is VH-CH1 (Fd); also called antidote
